*1 amine or outer side, *2 acyl side, *3 side chain or, on linkers, in order; H or OH if unused. Side-chain parts run from the residue outwards. The star is where a group is joined. C18 diacid = O=C(O)CCCCCCCCCCCCCCCCC(=O)*; γGlu = O=C(O)[C@H](CCC(=O)[*:2])N[*:1]; Isovaleryl = CC(C)CC(=O)*; AEEA = NCCOCCOCC(=O)O
T1: human neuropeptide Y2 receptor (human, UniProt P49146 1-381)
T1 construct: whole, on cells; also called hNPY2 receptor; hNPY2-R
T1 sequence (looked up): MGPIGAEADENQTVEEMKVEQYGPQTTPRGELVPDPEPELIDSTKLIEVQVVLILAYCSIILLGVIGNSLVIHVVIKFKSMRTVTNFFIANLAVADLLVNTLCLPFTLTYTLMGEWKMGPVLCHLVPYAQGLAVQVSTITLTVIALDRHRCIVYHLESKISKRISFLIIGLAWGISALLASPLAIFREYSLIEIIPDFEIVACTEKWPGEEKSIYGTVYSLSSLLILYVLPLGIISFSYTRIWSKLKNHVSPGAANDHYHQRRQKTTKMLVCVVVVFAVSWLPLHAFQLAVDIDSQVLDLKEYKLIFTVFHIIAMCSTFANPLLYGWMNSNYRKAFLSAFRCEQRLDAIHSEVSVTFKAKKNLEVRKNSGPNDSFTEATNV


Target: T1, human neuropeptide Y2 receptor
Assay: radioligand competition (125I-PYY(1-36)), hNPY2R membranes
Protocol: The filtration RLB assay was carried out in 96-well plates in a final volume of 100 μl per well. Freeze-dried test peptides were dissolved in 100% dimethyl sulfoxide (DMSO) to stock solutions of 1 mM and serial dilutions were performed in assay buffer (50 mM HEPES, 5 mM MgCl₂, 1 mM CaCl₂, pH 7.4) containing 0.2% ovalbumin. […] Next, 80 μL membranes (HTS066M, ChemiSCREEN™ Human Neuropeptide Y2 Receptor Membrane Preparation, CHEMICON) were added to each well to give a final protein concentration of 0.5 μg/well. The plates were sealed and incubated at room temperature for 2 hours in a plate shaker set at 400 rpm. The incubation was stopped by vacuum filtration onto 0.5% poly-ethylene amine (PEI) presoaked GF/C filters using a 96-well FilterMate™ harvester (Perkin Elmer) followed by four washes with 300 μl/well ice-cold wash buffer (50 mM HEPES, 500 mM NaCl, pH7.4). Filter plates were then dried for 60 min at room temperature and the bottom of the plates was sealed with backing tape UniFilter-96. Finally, 50 μl/well scintillation counter cocktail (Microscint20, Packard) was added and the radioactivity was counted in the Packard TopCount NXT scintillation counter. IC₅₀ values (the half maximal inhibitory concentration of the agonist) were calculated by nonlinear regression analysis of sigmoidal dose-response curves.

Row | Ki [nM] | Binder
1 | 0.93 | Isovaleryl-APEK([AEEA-AEEA-γGlu-C18 diacid])PEEDASPAELQRYYVSLRHYYNWLTRQRY-NH2 (SMILES CC(C)CC(=O)N[C@@H](C)C(=O)N1CCC[C@H]1C(=O)N[C@@H](CCC(=O)O)C(=O)N[C@@H](CCCCNC(=O)COCCOCCNC(=O)COCCOCCNC(=O)CC[C@H](NC(=O)CCCCCCCCCCCCCCCCC(=O)O)C(=O)O)C(=O)N1CCC[C@H]1C(=O)N[C@@H](CCC(=O)O)C(=O)N[C@@H](CCC(=O)O)C(=O)N[C@@H](CC(=O)O)C(=O)N[C@@H](C)C(=O)N[C@@H](CO)C(=O)N1CCC[C@H]1C(=O)N[C@@H](C)C(=O)N[C@@H](CCC(=O)O)C(=O)N[C@@H](CC(C)C)C(=O)N[C@@H](CCC(N)=O)C(=O)N[C@@H](CCCNC(=N)N)C(=O)N[C@@H](Cc1ccc(O)cc1)C(=O)N[C@@H](Cc1ccc(O)cc1)C(=O)N[C@H](C(=O)N[C@@H](CO)C(=O)N[C@@H](CC(C)C)C(=O)N[C@@H](CCCNC(=N)N)C(=O)N[C@@H](Cc1c[nH]cn1)C(=O)N[C@@H](Cc1ccc(O)cc1)C(=O)N[C@@H](Cc1ccc(O)cc1)C(=O)N[C@@H](CC(N)=O)C(=O)N[C@@H](Cc1c[nH]c2ccccc12)C(=O)N[C@@H](CC(C)C)C(=O)N[C@H](C(=O)N[C@@H](CCCNC(=N)N)C(=O)N[C@@H](CCC(N)=O)C(=O)N[C@@H](CCCNC(=N)N)C(=O)N[C@@H](Cc1ccc(O)cc1)C(N)=O)[C@@H](C)O)C(C)C) [Compound 17]
2 | 4.36 | Isovaleryl-APEK([AEEA-AEEA-γGlu-C18 diacid])PEEEASAEELQRYYVSLRHYYNWLTRQRY-NH2 (SMILES CC(C)CC(=O)N[C@@H](C)C(=O)N1CCC[C@H]1C(=O)N[C@@H](CCC(=O)O)C(=O)N[C@@H](CCCCNC(=O)COCCOCCNC(=O)COCCOCCNC(=O)CC[C@H](NC(=O)CCCCCCCCCCCCCCCCC(=O)O)C(=O)O)C(=O)N1CCC[C@H]1C(=O)N[C@@H](CCC(=O)O)C(=O)N[C@@H](CCC(=O)O)C(=O)N[C@@H](CCC(=O)O)C(=O)N[C@@H](C)C(=O)N[C@@H](CO)C(=O)N[C@@H](C)C(=O)N[C@@H](CCC(=O)O)C(=O)N[C@@H](CCC(=O)O)C(=O)N[C@@H](CC(C)C)C(=O)N[C@@H](CCC(N)=O)C(=O)N[C@@H](CCCNC(=N)N)C(=O)N[C@@H](Cc1ccc(O)cc1)C(=O)N[C@@H](Cc1ccc(O)cc1)C(=O)N[C@H](C(=O)N[C@@H](CO)C(=O)N[C@@H](CC(C)C)C(=O)N[C@@H](CCCNC(=N)N)C(=O)N[C@@H](Cc1c[nH]cn1)C(=O)N[C@@H](Cc1ccc(O)cc1)C(=O)N[C@@H](Cc1ccc(O)cc1)C(=O)N[C@@H](CC(N)=O)C(=O)N[C@@H](Cc1c[nH]c2ccccc12)C(=O)N[C@@H](CC(C)C)C(=O)N[C@H](C(=O)N[C@@H](CCCNC(=N)N)C(=O)N[C@@H](CCC(N)=O)C(=O)N[C@@H](CCCNC(=N)N)C(=O)N[C@@H](Cc1ccc(O)cc1)C(N)=O)[C@@H](C)O)C(C)C) [Compound 25]
3 | 0.39 | Isovaleryl-APEK([AEEA-AEEA-γGlu-C18 diacid])PEADASPEELQQYYVSLRHYYNWLTRQRY-NH2 (SMILES CC(C)CC(=O)N[C@@H](C)C(=O)N1CCC[C@H]1C(=O)N[C@@H](CCC(=O)O)C(=O)N[C@@H](CCCCNC(=O)COCCOCCNC(=O)COCCOCCNC(=O)CC[C@H](NC(=O)CCCCCCCCCCCCCCCCC(=O)O)C(=O)O)C(=O)N1CCC[C@H]1C(=O)N[C@@H](CCC(=O)O)C(=O)N[C@@H](C)C(=O)N[C@@H](CC(=O)O)C(=O)N[C@@H](C)C(=O)N[C@@H](CO)C(=O)N1CCC[C@H]1C(=O)N[C@@H](CCC(=O)O)C(=O)N[C@@H](CCC(=O)O)C(=O)N[C@@H](CC(C)C)C(=O)N[C@@H](CCC(N)=O)C(=O)N[C@@H](CCC(N)=O)C(=O)N[C@@H](Cc1ccc(O)cc1)C(=O)N[C@@H](Cc1ccc(O)cc1)C(=O)N[C@H](C(=O)N[C@@H](CO)C(=O)N[C@@H](CC(C)C)C(=O)N[C@@H](CCCNC(=N)N)C(=O)N[C@@H](Cc1c[nH]cn1)C(=O)N[C@@H](Cc1ccc(O)cc1)C(=O)N[C@@H](Cc1ccc(O)cc1)C(=O)N[C@@H](CC(N)=O)C(=O)N[C@@H](Cc1c[nH]c2ccccc12)C(=O)N[C@@H](CC(C)C)C(=O)N[C@H](C(=O)N[C@@H](CCCNC(=N)N)C(=O)N[C@@H](CCC(N)=O)C(=O)N[C@@H](CCCNC(=N)N)C(=O)N[C@@H](Cc1ccc(O)cc1)C(N)=O)[C@@H](C)O)C(C)C) [Compound 19]
4 | 1.52 | Isovaleryl-APEK([AEEA-AEEA-γGlu-C18 diacid])PEEDASPEELQKYYVSLRHYYNWLTRQRY-NH2 (SMILES CC(C)CC(=O)N[C@@H](C)C(=O)N1CCC[C@H]1C(=O)N[C@@H](CCC(=O)O)C(=O)N[C@@H](CCCCNC(=O)COCCOCCNC(=O)COCCOCCNC(=O)CC[C@H](NC(=O)CCCCCCCCCCCCCCCCC(=O)O)C(=O)O)C(=O)N1CCC[C@H]1C(=O)N[C@@H](CCC(=O)O)C(=O)N[C@@H](CCC(=O)O)C(=O)N[C@@H](CC(=O)O)C(=O)N[C@@H](C)C(=O)N[C@@H](CO)C(=O)N1CCC[C@H]1C(=O)N[C@@H](CCC(=O)O)C(=O)N[C@@H](CCC(=O)O)C(=O)N[C@@H](CC(C)C)C(=O)N[C@@H](CCC(N)=O)C(=O)N[C@@H](CCCCN)C(=O)N[C@@H](Cc1ccc(O)cc1)C(=O)N[C@@H](Cc1ccc(O)cc1)C(=O)N[C@H](C(=O)N[C@@H](CO)C(=O)N[C@@H](CC(C)C)C(=O)N[C@@H](CCCNC(=N)N)C(=O)N[C@@H](Cc1c[nH]cn1)C(=O)N[C@@H](Cc1ccc(O)cc1)C(=O)N[C@@H](Cc1ccc(O)cc1)C(=O)N[C@@H](CC(N)=O)C(=O)N[C@@H](Cc1c[nH]c2ccccc12)C(=O)N[C@@H](CC(C)C)C(=O)N[C@H](C(=O)N[C@@H](CCCNC(=N)N)C(=O)N[C@@H](CCC(N)=O)C(=O)N[C@@H](CCCNC(=N)N)C(=O)N[C@@H](Cc1ccc(O)cc1)C(N)=O)[C@@H](C)O)C(C)C) [Compound 21]
5 | 2.57 | Isovaleryl-APEK([AEEA-AEEA-γGlu-C18 diacid])PEEDAAPEELQRYYVELRHYYNWLTRQRY-NH2 (SMILES CC(C)CC(=O)N[C@@H](C)C(=O)N1CCC[C@H]1C(=O)N[C@@H](CCC(=O)O)C(=O)N[C@@H](CCCCNC(=O)COCCOCCNC(=O)COCCOCCNC(=O)CC[C@H](NC(=O)CCCCCCCCCCCCCCCCC(=O)O)C(=O)O)C(=O)N1CCC[C@H]1C(=O)N[C@@H](CCC(=O)O)C(=O)N[C@@H](CCC(=O)O)C(=O)N[C@@H](CC(=O)O)C(=O)N[C@@H](C)C(=O)N[C@@H](C)C(=O)N1CCC[C@H]1C(=O)N[C@@H](CCC(=O)O)C(=O)N[C@@H](CCC(=O)O)C(=O)N[C@@H](CC(C)C)C(=O)N[C@@H](CCC(N)=O)C(=O)N[C@@H](CCCNC(=N)N)C(=O)N[C@@H](Cc1ccc(O)cc1)C(=O)N[C@@H](Cc1ccc(O)cc1)C(=O)N[C@H](C(=O)N[C@@H](CCC(=O)O)C(=O)N[C@@H](CC(C)C)C(=O)N[C@@H](CCCNC(=N)N)C(=O)N[C@@H](Cc1c[nH]cn1)C(=O)N[C@@H](Cc1ccc(O)cc1)C(=O)N[C@@H](Cc1ccc(O)cc1)C(=O)N[C@@H](CC(N)=O)C(=O)N[C@@H](Cc1c[nH]c2ccccc12)C(=O)N[C@@H](CC(C)C)C(=O)N[C@H](C(=O)N[C@@H](CCCNC(=N)N)C(=O)N[C@@H](CCC(N)=O)C(=O)N[C@@H](CCCNC(=N)N)C(=O)N[C@@H](Cc1ccc(O)cc1)C(N)=O)[C@@H](C)O)C(C)C) [Compound 20]
6 | 2.22 | Isovaleryl-APEK([AEEA-AEEA-γGlu-C18 diacid])PEEDASPEELQRYYVSLRKYYNWLTRQRY-NH2 (SMILES CC(C)CC(=O)N[C@@H](C)C(=O)N1CCC[C@H]1C(=O)N[C@@H](CCC(=O)O)C(=O)N[C@@H](CCCCNC(=O)COCCOCCNC(=O)COCCOCCNC(=O)CC[C@H](NC(=O)CCCCCCCCCCCCCCCCC(=O)O)C(=O)O)C(=O)N1CCC[C@H]1C(=O)N[C@@H](CCC(=O)O)C(=O)N[C@@H](CCC(=O)O)C(=O)N[C@@H](CC(=O)O)C(=O)N[C@@H](C)C(=O)N[C@@H](CO)C(=O)N1CCC[C@H]1C(=O)N[C@@H](CCC(=O)O)C(=O)N[C@@H](CCC(=O)O)C(=O)N[C@@H](CC(C)C)C(=O)N[C@@H](CCC(N)=O)C(=O)N[C@@H](CCCNC(=N)N)C(=O)N[C@@H](Cc1ccc(O)cc1)C(=O)N[C@@H](Cc1ccc(O)cc1)C(=O)N[C@H](C(=O)N[C@@H](CO)C(=O)N[C@@H](CC(C)C)C(=O)N[C@@H](CCCNC(=N)N)C(=O)N[C@@H](CCCCN)C(=O)N[C@@H](Cc1ccc(O)cc1)C(=O)N[C@@H](Cc1ccc(O)cc1)C(=O)N[C@@H](CC(N)=O)C(=O)N[C@@H](Cc1c[nH]c2ccccc12)C(=O)N[C@@H](CC(C)C)C(=O)N[C@H](C(=O)N[C@@H](CCCNC(=N)N)C(=O)N[C@@H](CCC(N)=O)C(=O)N[C@@H](CCCNC(=N)N)C(=O)N[C@@H](Cc1ccc(O)cc1)C(N)=O)[C@@H](C)O)C(C)C) [Compound 24]

From US20210139548A1 (published 2021)
